Assay results reported in publication PMC4749545, “Kindlin-2 cooperates with talin to activate integrins and induces cell spreading by directly binding paxillin” (eLife, 2016).

Molecular target: T1, recombinant murine kindlin-2 (mouse, UniProt Q8CIB5 1-680)
T1 construct: murine kindlin-2, unmodified after SenP2 cleavage of the His10-SUMO3 tandem tag; Vector pCoofy17; also called recombinant kindlin-2; purified kindlin-2; source: E. coli Rosetta, purified (Ni-NTA, SenP2 cleavage, size-exclusion chromatography); not shown: His10, N-terminal, cleaved; SUMO3, N-terminal, cleaved
T1 sequence (looked up): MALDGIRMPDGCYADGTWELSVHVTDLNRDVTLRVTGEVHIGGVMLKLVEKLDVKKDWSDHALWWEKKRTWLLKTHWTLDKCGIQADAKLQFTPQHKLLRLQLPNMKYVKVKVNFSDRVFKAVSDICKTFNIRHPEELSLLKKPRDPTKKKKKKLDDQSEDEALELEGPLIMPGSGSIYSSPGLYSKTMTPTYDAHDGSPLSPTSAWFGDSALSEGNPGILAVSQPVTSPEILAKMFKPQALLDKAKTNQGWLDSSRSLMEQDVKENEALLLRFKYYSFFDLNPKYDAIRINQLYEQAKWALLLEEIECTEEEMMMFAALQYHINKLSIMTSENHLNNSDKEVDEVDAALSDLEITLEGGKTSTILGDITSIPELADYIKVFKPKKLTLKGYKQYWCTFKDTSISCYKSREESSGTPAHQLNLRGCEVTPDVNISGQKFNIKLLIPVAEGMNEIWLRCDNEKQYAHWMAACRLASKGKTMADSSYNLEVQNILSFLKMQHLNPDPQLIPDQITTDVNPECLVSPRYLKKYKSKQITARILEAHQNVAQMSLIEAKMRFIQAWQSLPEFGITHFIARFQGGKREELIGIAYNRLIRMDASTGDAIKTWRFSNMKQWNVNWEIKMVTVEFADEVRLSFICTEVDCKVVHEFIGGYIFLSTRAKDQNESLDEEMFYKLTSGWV
Experiment: pull-down; His10-tagged paxillin-LIM3 (35 µg) or paxillin-FL (10 µg) on Ni-NTA agarose, washed with 1 mM ZnCl2; 14 µg purified kindlin-2 added for 30 min at 4°C; 20 mM Tris pH 7.5, 200 mM NaCl, 1 mM TCEP, 0.05% Tween20; washes with 25 mM imidazole and 1 mM ZnCl2; SDS-PAGE
Conditions: both partners purified

binding result: binds
B1: His10-SUMO3-paxillin-LIM3 domain (domain or fragment, mouse, UniProt Q8VI36 473-533, looked up)
chain: APKCGGCARAILENYISALNTLWHPECFVCRECFTPFVNGSFFEHDGQPYCEVHYHERRGS
notes: paxillin LIM3 domain, A473-S533; Vector pCoofy17. 'murine' in the sentence of the methods stands before kindlin-2 and may or may not hold for paxillin-LIM3; also called His10-LIM3; His-tagged paxillin-LIM3 domain; source: E. coli Rosetta, purified (Ni-NTA, size-exclusion chromatography); not shown: His10, N-terminal, kept; SUMO3, N-terminal, kept
